Substrate in this series: NC(=O)CC[C@H](NC(=O)[C@@H](N)CCC(N)=O)C(=O)O
Briefly: Spectrophotometric QC activity assay (glutamate dehydrogenase coupled), human QC expressed in E. coli. The series is classed as biochemical. The conditions noted are these: other: substrate of human QC expressed in Escherichia coli cell, mean ± SD (n = 2), 50 mM Tris-HCl, pH 8.0. As for the experimental part:
For the spectrophotometric method, the 500 μl assay solutions consisted of 15 units glutamate dehydrogenase, 12 mM α-ketoglutarate, 0.6 mM NADH (a reduced form of NAD (nicotinamide adenine dinucleotide)) and varying concentrations of synthetic substrate in 50 mM Tris-HCl, pH 8.0. Reactions were started by the addition of QC (0.04 to 2.5 μg), and the activity was monitored by recording the decrease of NADH absorbance at 340 nm.
The Km and kcat values determined for the recombinant protein of the invention were very similar to the human QC expressed in Drosophila S2 cells, as evident in Table 1.

The text below walks through data of US7846719B2, “Express system of soluble glutaminyl cyclase” (Academia Sinica, priority 2006, dated 2010).

B1: recombinant human QC (Homo sapiens) (protein)
chain: ASAWPEEKNYHQPAILNSSALRQIAEGTSISEMWQNDLQPLLIERYPGSPGSYAARQHIMQRIQRLQADWVLEIDTFLSQTPYGYRSFSNIISTLNPTAKRHLVLACHYDSKYFSHWNNRVFVGATDSAVPCAMMLELARALDKKLLSLKTVSDSKPDLSLQLIFFDGEEAFLHWSPQDSLYGSRHLAAKMASTPHPPGARGTSQLHGMDLLVLLDLIGAPNPTFPNFFPNSARWFERLQAIEHELHELGLLKDHSLEGRYFQNYSYGGVIQDDHIPFLRRGVPVLHLIPSPFPEVWHTMDDNEENLDESTIDNLNKILQVFVLEYLHL
notes: corresponding to the coding region of human QC (Ala33-Leu361) was re-amplified and inserted into a pET-43.1a expression vector; Nus fusion (pET-43.1a construct) or thioredoxin fusion (pET-32a construct) (N, cleaved yes); (His)6 (pET-43.1a construct: N- and C-terminal sites; pET-32a construct: 5'-end, upstream of the Factor Xa site); made in house; host or cells: E. coli BL21 (DE3)
The term Km denotes the concentration of substrate that gives half-maximal velocity. The kcat is the maximal rate divided by the concentration of active sites. One may read the kcat/Km as the second-order rate constant that governs catalysis at low substrate concentration. Take B1: the Km turned out to be 600 ± 100 µM, the catalytic constant (kcat) came to 8.6 ± 0.5 s⁻¹ and the kcat/Km was 13700 ± 500 M⁻¹ s⁻¹.
